Source: FireProtDB (doi:10.1111/febs.12694)
“And” between values parts separate entries of the source, which are not always exact repeats. Equal values may be shown once.

B1: Bacteriorhodopsin, P02945 (parent)
chain: MLELLPTAVEGVSQAQITGRPEWIWLALGTALMGLGTLYFLVKGMGVSDPDAKKFYAITTLVPAIAFTMYLSMLLGYGLTMVPFGGEQNPIYWARYADWLFTTPLLLLDLALLVDADQGTILALVGADGIMIGTGLVGALTKVYSYRFVWWAISTAAMLYILYVLFFGFTSKAESMRPEVASTFKVLRNVTVVLWSAYPVVWLIGSEGAGIVPLNIETLLFMVLDVSAKVGFGLILLRSRAIFGEAEAPEPSAGDGAAATSD

Variants of: B1
Details: Halobacterium salinarum (strain ATCC 700922 / JCM 11081 / NRC-1); pH 3.5; Thermal; DSC; structure 1C3W; whole UniProt chain shown

Variant	Tm	change of melting temperature, mutant - wild type (higher = more stable)
E22Q E207Q E217Q	69.4 °C	-7.2 °C

Same assay, conditions: Halobacterium salinarum (strain ATCC 700922 / JCM 11081 / NRC-1); pH 4; Thermal; UV spectroscopy; transition: 2; structure 1C3W; whole UniProt chain shown

Variant	Tm	change of melting temperature, mutant - wild type (higher = more stable)
E22Q E207Q E217Q	60.1 °C and 64.1 °C	-5.1 °C

Same assay, conditions: Halobacterium salinarum (strain ATCC 700922 / JCM 11081 / NRC-1); pH 7; Thermal; DSC; structure 1C3W; whole UniProt chain shown

Variant	Tm	change of melting temperature, mutant - wild type (higher = more stable)
E22Q E207Q E217Q	93.3 °C	-4.9 °C

Same assay, conditions: Halobacterium salinarum (strain ATCC 700922 / JCM 11081 / NRC-1); pH 7; Thermal; UV spectroscopy; transition: 2; structure 1C3W; whole UniProt chain shown

Variant	change of melting temperature, mutant - wild type (higher = more stable)
E22Q E207Q E217Q	-0.4 °C

Same assay, conditions: Halobacterium salinarum (strain ATCC 700922 / JCM 11081 / NRC-1); pH 9; Thermal; DSC; structure 1C3W; whole UniProt chain shown

Variant	Tm	change of melting temperature, mutant - wild type (higher = more stable)
E22Q E207Q E217Q	82.6 °C	-11.9 °C

Same assay, conditions: Halobacterium salinarum (strain ATCC 700922 / JCM 11081 / NRC-1); pH 9.5; Thermal; UV spectroscopy; glycine buffer; transition: 2; structure 1C3W; whole UniProt chain shown

Variant	change of melting temperature, mutant - wild type (higher = more stable)
E22Q E207Q E217Q	0 °C
